Data from PMC10182070, “Ligand dependent interaction between PC-TP and PPARδ mitigates diet-induced hepatic steatosis in male mice” (Nature Communications, 2023).
Residue numbers refer to the chain shown, from its start. Numbers in names are those of the source.

T1: purified full-length PPARδ, Cy5-labelled (human, UniProt Q03181 1-441, Cy5 fluorophore (NHS) on lysine amines)
T1 construct: Full-length PPARδ in PSMT3 vector; also called FL-PPARδ; full-length (FL) PPARδ; source: E. coli BL21 DE3, purified (IMAC, Capto S and Capto Q, Superdex 75 SEC)
T1 sequence (looked up): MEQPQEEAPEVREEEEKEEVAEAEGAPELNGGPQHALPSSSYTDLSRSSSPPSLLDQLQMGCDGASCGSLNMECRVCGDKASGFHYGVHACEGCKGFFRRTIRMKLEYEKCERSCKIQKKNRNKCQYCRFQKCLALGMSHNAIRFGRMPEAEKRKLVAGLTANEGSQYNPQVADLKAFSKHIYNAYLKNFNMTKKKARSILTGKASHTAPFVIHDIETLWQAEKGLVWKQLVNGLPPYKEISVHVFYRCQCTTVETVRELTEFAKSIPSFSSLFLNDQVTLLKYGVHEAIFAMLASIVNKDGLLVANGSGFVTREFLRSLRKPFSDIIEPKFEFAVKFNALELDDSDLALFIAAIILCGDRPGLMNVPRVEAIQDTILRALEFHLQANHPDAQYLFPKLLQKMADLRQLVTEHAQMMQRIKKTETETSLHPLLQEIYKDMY

T2: purified PPARδ ligand-binding domain (LBD), Cy5-labelled (human, Cy5 fluorophore (NHS) on lysine amines)
T2 chain: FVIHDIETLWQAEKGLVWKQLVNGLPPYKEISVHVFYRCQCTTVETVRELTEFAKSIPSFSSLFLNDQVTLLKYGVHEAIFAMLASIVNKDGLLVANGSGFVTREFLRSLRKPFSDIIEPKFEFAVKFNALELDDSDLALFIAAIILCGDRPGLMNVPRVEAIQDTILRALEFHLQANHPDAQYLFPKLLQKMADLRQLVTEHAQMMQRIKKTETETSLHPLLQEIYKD

T3: full-length PPARδ, split nano-luciferase (nano-PCA) fusion (human, UniProt Q03181 1-441)
T3 construct: wild-type human PPARδ, printed as residues 1-470; The clones of the HEK293T screen are not described; also called FL-PPARδ; intact PPARδ; source: HEK293T (screen) and Huh7, transfected, in cells
T3 sequence (looked up): T1 sequence (looked up)

B1: purified PC-TP (natural protein, human)
chain: MELAAGSFSEEQFWEACAELQQPALAGADWQLLVETSGISIYRLLDKKTGLYEYKVFGVLEDCSPTLLADIYMDSDYRKQWDQYVKELYEQECNGETVVYWEVKYPFPMSNRDYVYLRQRRDLDMEGRKIHVILARSTSMPQLGERSGVIRVKQYKQSLAIESDGKKGSKVFMYYFDNPGGQIPSWLINWAAKNGVPNFLKDMARACQNYLKKT
notes: PC-TP coding region in pMCSG7; the structure of PC-TP solved here is PDB 7U9D; 0.01% soy lecithin was added to the cultures at induction; also called LTP; source: E. coli BL21 DE3, purified (IMAC, Superdex 75 SEC)
B2: PC-TP Y114R, split nano-luciferase (nano-PCA) fusion (natural protein, human, UniProt Q9UKL6 1-214, looked up)
chain: B1 chain with Y114R
notes: source: Huh7, transfected, in cells
B3: PC-TP R120H, split nano-luciferase (nano-PCA) fusion (natural protein, human, UniProt Q9UKL6 1-214, looked up)
chain: B1 chain with R120H
notes: as for B2
B4: PC-TP R78E, split nano-luciferase (nano-PCA) fusion (natural protein, human, UniProt Q9UKL6 1-214, looked up)
chain: B1 chain with R78E
notes: as for B2

Legend:
[1] = biological target: T1, purified full-length PPARδ, Cy5-labelled; assay: temperature related intensity change (TRIC); 50 nM Cy5-labelled FL-PPARδ or PPARδ LBD with LTPs (10 µM-610 pM), overnight at 4 °C; 20 mM Hepes pH 8.3, 200 mM NaCl, 5% glycerol, 0.05% tween-20, 0.5 mM TCEP; Dianthus NT.23 Pico; conditions: both partners purified
[2] = biological target: T2, purified PPARδ ligand-binding domain …
[3] = biological target: T3, full-length PPARδ, split …; assay: split reporter (BiFC, NanoBiT); nano-PCA in transfected Huh7 cells (100 ng/well of each fusion); fresh culture media or DMEM F-12 with 0.5% serum (mutant panel in 0.5% serum); signal normalized to the highest negative control; conditions: partners not purified

| Kd [1] [µM] | Kd [2] [µM] | percent decrease of the interaction relative to wild-type PC-TP [3] [%] | Binder |
| --- | --- | --- | --- |
| ~2.4 | 4.23 | – | B1 |
| – | – | ~45 | B2 |
| – | – | ~45 | B3 |
| – | – | ~45 | B4 |
